As a reminder, the stoichiometry N is the number of molecules, sites or subunits per partner or assembly.

The text below walks through data of paper doi:10.1101/2025.08.29.672660.

This assay has as its target HdpA^S-LEHHHHHH (HdpA devoid of its N-terminal hydrophobic segment, His-tagged) (Helicobacter pylori strain 26695). The experiment in a line: crystal structure.

Substance “LhiA^S-SAHHHHHH (LhiA devoid of its predicted signal peptide and lipidated cysteine, His-tagged) (natural protein)” returned a stoichiometry N of 1.
